In patent US9273364B2 (Kyoto University, priority 2010, dated 2016):
One block for each molecule: values may come before it.

Experiments:
[1] = system: mouse FGFR2 exon 8 RNA probe (U1 snRNA binding); test: In vitro exon-recognition assay, exon 8 probe; format: biochemical; details: HeLa nuclear extract, UV crosslinking
Protocol: (§1) A mutated DNA template of 3′ ss in intron 8 and 5′ ss in intron 9 was prepared from mutated reporter vectors as shown in FIG. 3A. The RNA substrates were labeled with ^32P by in vitro T7 transcription. In vitro splicing reaction and UV cross linking were performed under the conditions described by Sawa [Sawa H, Shimura Y (1992) Genes Dev 6: 244-254.]. To identify the shifted bands by UV cross linking, pre-heated cDNA oligo (10 microgram/mL) for U1 (5′-[…]-3′/SEQ ID NO:38) or U2 (5′-[…]-3′/SEQ ID NO:39) was added to the RNAs after UV cross linking, and the U1 or U2 cDNA oligo/RNAs mixture were digested with 50 U/mL of RNase H at 30 degrees C. for 10 min. In FIG. 5C, highly purified Flag-Fox2 and Flag-ESRP1 were added to RNAs and incubated at room temperature for 5 min before splicing reaction to examine their inhibitory or activating effects on exon recognition of U1 snRNA or U2 snRNA. After these reactions, RNAs were subjected to denaturing PAGE analysis and autoradiography.
(§2) Next, the present inventors tested whether Fox and/or ESRP cause switching from exon 9 to exon 8 through interruption of exon 9 recognition. The present inventors examined this under the in vitro splicing conditions using ^32P-labeled RNA probe of exon 9 with introns containing UGCAUG and ISE/ISS-3 sites (FIG. 10C, top panel) and the exon 8 RNA probe of same stretches. […]

[2] = system: mouse FGFR2 exon 9 RNA probe (U1 and U2 snRNA binding); test: In vitro exon-recognition assay, exon 9 probe; format: biochemical; details: HeLa nuclear extract, UV crosslinking
Protocol: as §1, §2

suppressive or activating effect on exon recognition [1]: not obvious | shifted bands by U1 and U2 snRNA [2]: decreased
B1: Fox2 protein: highly purified recombinant Flag-Fox2 added to RNAs before splicing reaction (protein, UniProt O43251 1-390, looked up)
RNA binding protein fox-1 …: MQNEPLTPGYHGFPARDSQGNQEPTTTPDAMVQPFTTIPFPPPPQNGIPTEYGVPHTQDYAGQTGEHNLTLYGSTQAHGEQSSNSPSTQNGSLTTEGGAQTDGQQSQTQSSENSESKSTPKRLHVSNIPFRFRDPDLRQMFGQFGKILDVEIIFNERGSKGFGFVTFENSADADRAREKLHGTVVEGRKIEVNNATARVMTNKKMVTPYANGWKLSPVVGAVYGPELYAASSFQADVSLGNDAAVPLSGRGGINTYIPLISLPLVPGFPYPTAATTAAAFRGAHLRGRGRTVYGAVRAVPPTAIPAYPGVVYQDGFYGADLYGGYAAYRYAQPATATAATAAAAAAAAYSDGYGRVYTADPYHALAPAASYGVGAVASLYRGGYSRFAPY
modifications: Flag tag

suppressive or activating effect on exon recognition [1]: not obvious | shifted bands by U1 and U2 snRNA [2]: decreased
B2: ESRP1 protein: highly purified recombinant Flag-ESRP1 added to RNAs before splicing reaction (protein, UniProt Q6NXG1 1-681, looked up)
Epithelial splicing …: MTASPDYLVVLFGITAGATGAKLGSDEKELILLFWKVVDLANKKVGQLHEVLVRPDQLELTEDCKEETKIDVESLSSASQLDQALRQFNQSVSNELNIGVGTSFCLCTDGQLHVRQILHPEASKKNVLLPECFYSFFDLRKEFKKCCPGSPDIDKLDVATMTEYLNFEKSSSVSRYGASQVEDMGNIILAMISEPYNHRFSDPERVNYKFESGTCSKMELIDDNTVVRARGLPWQSSDQDIARFFKGLNIAKGGAALCLNAQGRRNGEALVRFVSEEHRDLALQRHKHHMGTRYIEVYKATGEDFLKIAGGTSNEVAQFLSKENQVIVRMRGLPFTATAEEVVAFFGQHCPITGGKEGILFVTYPDGRPTGDAFVLFACEEYAQNALRKHKDLLGKRYIELFRSTAAEVQQVLNRFSSAPLIPLPTPPIIPVLPQQFVPPTNVRDCIRLRGLPYAATIEDILDFLGEFATDIRTHGVHMVLNHQGRPSGDAFIQMKSADRAFMAAQKCHKKNMKDRYVEVFQCSAEEMNFVLMGGTLNRNGLSPPPCKLPCLSPPSYTFPAPAAVIPTEAAIYQPSVILNPRALQPSTAYYPAGTQLFMNYTAYYPSPPGSPNSLGYFPTAANLSGVPPQPGTVVRMQGLAYNTGVKEILNFFQGYQYATEDGLIHTNDQARTLPKEWVCI
modifications: Flag tag
